Source: patent publication US20210085785A1 (TRUEBINDING, published 2021)

T1: Purified human LRIG1 extracellular domain fused to a HIS tag (R&D Systems) (human) (UniProt Q96JA1)
T1 sequence: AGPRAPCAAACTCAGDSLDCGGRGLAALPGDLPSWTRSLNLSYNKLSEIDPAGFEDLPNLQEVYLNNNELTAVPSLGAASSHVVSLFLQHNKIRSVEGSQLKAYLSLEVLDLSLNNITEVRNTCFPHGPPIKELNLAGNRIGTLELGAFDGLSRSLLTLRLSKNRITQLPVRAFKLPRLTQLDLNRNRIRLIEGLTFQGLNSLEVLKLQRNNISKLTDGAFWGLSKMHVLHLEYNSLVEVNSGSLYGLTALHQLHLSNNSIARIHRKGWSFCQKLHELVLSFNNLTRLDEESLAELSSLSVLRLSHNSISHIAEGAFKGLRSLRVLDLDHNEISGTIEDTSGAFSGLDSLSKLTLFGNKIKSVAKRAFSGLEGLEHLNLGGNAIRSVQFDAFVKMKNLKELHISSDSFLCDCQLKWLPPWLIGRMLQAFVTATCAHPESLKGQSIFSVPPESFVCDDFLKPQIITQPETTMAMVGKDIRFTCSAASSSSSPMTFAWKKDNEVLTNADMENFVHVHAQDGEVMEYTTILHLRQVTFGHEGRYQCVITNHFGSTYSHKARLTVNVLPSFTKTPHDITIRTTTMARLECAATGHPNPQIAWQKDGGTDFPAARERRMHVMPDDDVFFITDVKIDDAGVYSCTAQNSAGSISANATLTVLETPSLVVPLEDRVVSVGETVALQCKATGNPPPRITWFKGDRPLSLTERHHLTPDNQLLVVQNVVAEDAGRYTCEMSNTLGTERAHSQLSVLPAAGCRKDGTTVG

T2: Purified human LRIG1 extracellular domain fused to a HIS tag (R&D Systems) (human, UniProt Q96JA1 35-794)
T2 construct: also called human LRIG1-His; hLRIG1-His; not shown: HIS tag
T2 sequence: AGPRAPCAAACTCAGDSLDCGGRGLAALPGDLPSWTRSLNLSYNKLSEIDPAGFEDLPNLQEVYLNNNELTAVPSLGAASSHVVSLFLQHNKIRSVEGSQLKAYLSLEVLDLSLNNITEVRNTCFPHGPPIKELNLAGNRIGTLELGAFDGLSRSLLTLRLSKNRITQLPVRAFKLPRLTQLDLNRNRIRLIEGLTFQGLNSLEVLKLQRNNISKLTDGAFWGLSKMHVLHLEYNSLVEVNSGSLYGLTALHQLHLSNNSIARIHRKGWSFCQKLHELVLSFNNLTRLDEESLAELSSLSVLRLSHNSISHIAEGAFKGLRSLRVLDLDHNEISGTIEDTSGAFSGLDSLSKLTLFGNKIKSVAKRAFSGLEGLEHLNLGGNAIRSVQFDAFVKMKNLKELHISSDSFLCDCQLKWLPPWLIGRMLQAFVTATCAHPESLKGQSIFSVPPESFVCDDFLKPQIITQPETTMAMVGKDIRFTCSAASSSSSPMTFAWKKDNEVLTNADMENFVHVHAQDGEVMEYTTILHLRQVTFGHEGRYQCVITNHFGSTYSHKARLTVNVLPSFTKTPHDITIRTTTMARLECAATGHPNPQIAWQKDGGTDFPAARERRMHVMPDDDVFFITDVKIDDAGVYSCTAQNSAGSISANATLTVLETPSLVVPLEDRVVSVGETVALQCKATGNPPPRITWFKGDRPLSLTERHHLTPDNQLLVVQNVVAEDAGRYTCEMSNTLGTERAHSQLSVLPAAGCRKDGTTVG


Assays:
[1] = target: T1, Purified human LRIG1 extracellular domain fused to a HIS tag (R&D Systems) (human); test: biosensor binning; saturating mab5 20 ug/mL, competitor mab2 5 ug/mL
[2] = target: T1, Purified human LRIG1 extracellular domain fused to a HIS tag (R&D Systems) (human); test: biosensor binning; saturating mab5 20 ug/mL, competitor mab4 5 ug/mL
[3] = target: T1, Purified human LRIG1 extracellular domain fused to a HIS tag (R&D Systems) (human); test: biosensor binning; saturating mab5 20 ug/mL, competitor mab5 5 ug/mL
[4] = target: T1, Purified human LRIG1 extracellular domain fused to a HIS tag (R&D Systems) (human); test: biosensor binning; saturating mab5 20 ug/mL, competitor mab6 5 ug/mL
[5] = target: T1, Purified human LRIG1 extracellular domain fused to a HIS tag (R&D Systems) (human); test: blocking ELISA: LRIG1 ECD-His coated, antibody 3.3 ug/ml, oligomerized VISTA 50 nM, avidin-HRP
[6] = target: T2, Purified human LRIG1 extracellular …; test: as above
Description: To identify LRIG1-targeted antibodies with the ability to block the interaction of LRIG1 and VISTA, purified LRIG1 and VISTA proteins were incubated in the presence of various LRIG1-targeted or control antibodies, or without antibody, and protein interaction was evaluated by ELISA. Purified human LRIG1 extracellular domain fused to a HIS tag (R&D Systems) was diluted in phosphate buffered saline (PBS) (Corning) to a concentration of 3 μg/ml and 100 ul was added to each well of a 96-well ELISA plate (Thermo Fisher, 44-2404-21). After incubating the plate at 4° C. overnight, the plate was washed three times with 300 μl of PBS with 0.05% TWEEN (VWR) (PBST) per well. The plate was then blocked for an hour with 200 μl of 2% bovine serum albumin (BSA) (Sigma) in PBST per well at room temperature with gentle rocking. Thereafter, the 2% BSA in PBST was removed and 50 ul of antibody at 3.3 ug/ml in 2% BSA in PBST was added to the wells. The plate was incubated for 10 minutes at room temperature with gentle rocking. Afterwards, 50 nM of oligomerized VISTA in 100 ul PBS buffer was added per well. […] The plate was read using a plate reader (Molecular Devices) at absorbance of 450 nm. Percent blockade of LRIG1-VISTA interaction was calculated as the fraction of signal obtained in each experimental samples of the no antibody sample less background signal.

| Binder | competition matrix entry (not explained) [1] | competition matrix entry (not explained) [2] | competition matrix entry (not explained) [3] | competition matrix entry (not explained) [4] | percent of LRIG1-VISTA binding relative to an unblocked sample [5] | percent of LRIG1-VISTA binding relative to an unblocked sample [6] |
| --- | --- | --- | --- | --- | --- | --- |
| mab5 (antibody, V domains shown) VH: QVQLVQSGAEVKKPGASVKVSCKASGYTFTSYYLHWVRQAPGQRLEWMGWIYPGNVNTKYNQKFQGRVTITADKSASTAYMELSSLRSEDTAVYFCAREELGGFAYWGQGTLVTVSS VL: DIQMTQSPSSLSASVGNRVTITCRASQDISNYLSWYQQKPGKVPKLLIYYTSILHSGVPSRFSGSGSGTDYSLTISSLQPEDVATYFCQQGNTLPRTFGQGTKVEIK | 0 | 0 | 0 | 0 | 60% |  |
| mab4 (IMT300) (antibody, V domains shown, also called hLRIG1 mAb IMT300; Immutics PP14384) VH: QVQLVQSGAEVKKPGASVKVSCKASGYTFTSYYLHWVRQAPGQRLEWMGWIYPGNVNTKYNQKFQGRVTITADKSASTAYMELSSLRSEDTAVYFCAREELGGFAYWGQGTLVTVSS VL: DIQMTQSPSSVSASIGDRVTITCRASQDISNYLSWYQQKPGKAPKLLIYYTSILHSGVPSRFSGSGSGTDYTLTISSLQPEDFATYFCQQGNTLPRTFGGGTKVEIK |  |  |  |  |  | 44% |
| mab6 (antibody, V domains shown, also called Immutics PP14387) VH: QVQLVQSGAEVKKPGASVKVSCKASGYTFTSYYLHWVRQAPGQRLEWIGWIYPGNVNTKYNEKFQGRVTLTADKSASTAYMELSSLRSEDTAVYFCAREELGGFAYWGQGTLVTVSS VL: DIQMTQSPSSVSASIGDRVTITCRASQDISNYLSWYQQKPGKAPKLLIYYTSILHSGVPSRFSGSGSGTDYTLTISSLQPEDFATYFCQQGNTLPRTFGGGTKVEIK |  |  |  |  |  | 43% |
